These results are taken from paper PMC11162469, “Discovery of RXFP2 genetic association in resistant hypertensive men and RXFP2 antagonists for the treatment of resistant hypertension” (Scientific Reports, 2024).

One experiment deals with rat RXFP1 (rat) (UniProt Q6R6I6).
Experiment [1] deals with human relaxin family peptide receptor 2 (RXFP2) (human) (UniProt Q8WXD0).
The target in experiment [2] is rat relaxin family peptide receptor 2 (RXFP2) (rat) (UniProt Q5ECL0).
Experiment [3] has as its target human relaxin family peptide receptor 2 (RXFP2) (human) (UniProt Q8WXD0). This is another data set of the same source.
Experiment [4] has as its target rat relaxin family peptide receptor 2 (RXFP2) (rat) (UniProt Q5ECL0). This is another data set of the same source.
The target in experiment [5] is human relaxin family peptide receptor 2 (RXFP2) (human) (UniProt Q8WXD0). This is another data set of the same source.
Experiment [6] has the same target. This is another data set of the same source.
The target in experiment [7] is rat relaxin family peptide receptor 2 (RXFP2) (rat) (UniProt Q5ECL0). The source holds these as a separate data set.

Chain of human relaxin family peptide receptor 2 (RXFP2) (human) (Q8WXD0 whole entry): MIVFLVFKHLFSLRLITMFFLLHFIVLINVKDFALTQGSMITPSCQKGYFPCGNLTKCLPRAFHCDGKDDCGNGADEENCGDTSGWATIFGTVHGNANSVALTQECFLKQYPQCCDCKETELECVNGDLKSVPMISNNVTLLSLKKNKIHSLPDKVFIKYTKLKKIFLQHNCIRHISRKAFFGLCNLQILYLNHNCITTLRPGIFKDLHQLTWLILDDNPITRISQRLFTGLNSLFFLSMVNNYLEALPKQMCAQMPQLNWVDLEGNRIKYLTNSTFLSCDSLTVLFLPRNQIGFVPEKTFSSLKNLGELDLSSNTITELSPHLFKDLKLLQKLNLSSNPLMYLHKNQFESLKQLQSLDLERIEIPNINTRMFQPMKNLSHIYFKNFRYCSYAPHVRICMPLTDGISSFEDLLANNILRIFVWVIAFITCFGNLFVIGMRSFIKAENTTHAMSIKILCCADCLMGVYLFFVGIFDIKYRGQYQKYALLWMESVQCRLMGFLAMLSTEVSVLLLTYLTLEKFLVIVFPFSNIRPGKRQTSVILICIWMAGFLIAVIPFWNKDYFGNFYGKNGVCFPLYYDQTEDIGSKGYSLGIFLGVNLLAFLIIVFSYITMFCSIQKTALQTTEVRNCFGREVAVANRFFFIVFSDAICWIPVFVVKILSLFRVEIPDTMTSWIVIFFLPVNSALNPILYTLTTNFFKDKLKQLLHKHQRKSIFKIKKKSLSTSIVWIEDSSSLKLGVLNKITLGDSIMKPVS
Chain of rat relaxin family peptide receptor 2 (RXFP2) (rat) (Q5ECL0 entry or part of it): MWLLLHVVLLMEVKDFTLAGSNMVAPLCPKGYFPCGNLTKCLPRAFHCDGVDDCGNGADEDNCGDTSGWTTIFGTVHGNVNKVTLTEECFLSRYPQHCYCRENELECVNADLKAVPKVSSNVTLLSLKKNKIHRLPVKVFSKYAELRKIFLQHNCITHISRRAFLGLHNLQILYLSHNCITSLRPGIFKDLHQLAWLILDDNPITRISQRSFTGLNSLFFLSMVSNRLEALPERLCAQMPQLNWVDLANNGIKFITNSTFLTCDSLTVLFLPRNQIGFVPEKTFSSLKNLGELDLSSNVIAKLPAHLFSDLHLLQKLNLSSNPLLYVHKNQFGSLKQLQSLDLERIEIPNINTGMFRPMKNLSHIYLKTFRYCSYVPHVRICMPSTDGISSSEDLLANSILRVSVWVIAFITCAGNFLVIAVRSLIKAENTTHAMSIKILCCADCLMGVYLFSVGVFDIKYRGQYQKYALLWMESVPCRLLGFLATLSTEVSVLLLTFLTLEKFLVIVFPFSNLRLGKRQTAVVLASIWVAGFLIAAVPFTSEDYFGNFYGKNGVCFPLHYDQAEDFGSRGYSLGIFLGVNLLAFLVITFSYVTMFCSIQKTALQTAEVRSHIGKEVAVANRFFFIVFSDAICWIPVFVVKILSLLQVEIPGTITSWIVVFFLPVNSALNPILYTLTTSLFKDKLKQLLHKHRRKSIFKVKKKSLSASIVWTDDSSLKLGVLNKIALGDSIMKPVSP
Chain of Human INSL3 (insulin-like peptide 3) (ligand) (P51460 21-131): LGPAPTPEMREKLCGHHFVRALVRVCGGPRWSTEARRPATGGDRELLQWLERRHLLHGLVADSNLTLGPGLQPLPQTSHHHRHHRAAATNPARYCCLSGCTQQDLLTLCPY
Chain of INSL3 (species not stated for the stable HEK293 cAMP assays) (ligand) (P51460 21-131): as above
Chain of relaxin (H2 Relaxin) (ligand) (P04090 25-185): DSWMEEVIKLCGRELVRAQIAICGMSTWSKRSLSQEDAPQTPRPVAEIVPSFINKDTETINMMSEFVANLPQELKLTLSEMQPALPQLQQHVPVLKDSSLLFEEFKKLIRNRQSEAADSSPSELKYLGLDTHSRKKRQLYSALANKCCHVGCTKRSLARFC
Chain of rat RXFP1 (rat) (Q6R6I6 whole entry): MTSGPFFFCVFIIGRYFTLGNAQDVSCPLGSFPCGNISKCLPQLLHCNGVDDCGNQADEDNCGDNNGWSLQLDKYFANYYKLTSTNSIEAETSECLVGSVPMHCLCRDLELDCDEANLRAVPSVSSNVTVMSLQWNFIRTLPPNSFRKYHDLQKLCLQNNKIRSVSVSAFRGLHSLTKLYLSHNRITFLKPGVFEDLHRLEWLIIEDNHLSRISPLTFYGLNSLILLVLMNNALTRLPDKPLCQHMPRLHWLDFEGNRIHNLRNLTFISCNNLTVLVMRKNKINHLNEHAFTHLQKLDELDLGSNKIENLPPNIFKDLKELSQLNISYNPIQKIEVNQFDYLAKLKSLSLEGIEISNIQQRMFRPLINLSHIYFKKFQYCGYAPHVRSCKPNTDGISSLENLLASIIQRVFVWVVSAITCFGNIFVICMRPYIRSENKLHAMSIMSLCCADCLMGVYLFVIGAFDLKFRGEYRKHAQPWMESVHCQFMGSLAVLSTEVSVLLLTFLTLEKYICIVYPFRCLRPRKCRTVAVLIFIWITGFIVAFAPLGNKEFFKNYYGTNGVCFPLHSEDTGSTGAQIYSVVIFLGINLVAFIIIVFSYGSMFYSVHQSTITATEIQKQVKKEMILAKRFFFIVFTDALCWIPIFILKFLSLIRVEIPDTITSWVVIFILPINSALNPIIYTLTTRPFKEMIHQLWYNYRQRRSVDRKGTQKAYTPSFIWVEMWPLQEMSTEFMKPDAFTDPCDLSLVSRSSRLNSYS

For the substance relaxin (H2 Relaxin) (ligand), the EC50, relaxin-induced cAMP generation in HEK293-rat RXFP1 (stable) with rat RXFP1 (rat) is 29.5 nM.
Turning to “INSL3 (species not stated for the stable HEK293 cAMP assays) (ligand)”, the EC50, INSL3-induced cAMP generation in HEK293-hRXFP2 (stable) in experiment [1] was determined as 2.9 nM. The EC50, INSL3-induced cAMP generation in HEK293-rRXFP2 cells (stable) in experiment [2] came to 8.4 nM.
As to “Human INSL3 (insulin-like peptide 3) (ligand)”, the EC50, INSL3-induced cAMP (HTRF) in HEK293 expressing human RXFP2 (BacMam) in experiment [3] amounted to 0.048 nM. Moreover, the EC50, INSL3-induced cAMP in HEK293 transiently expressing rat RXFP2 (BacMam) in experiment [4] is 13 nM. The EC50, INSL3-induced intracellular calcium (FLIPR) in HEK293 Gα16 cells transiently expressing RXFP2 in experiment [5] is 13.4 nM. In experiment [6], this substance displayed an EC50, CYP11B1 mRNA expression after 48 h in H295R-hRXFP2 of 1.3 nM; an EC50, CYP11B2 mRNA expression after 48 h in H295R-hRXFP2 of 2 nM; an EC50, cAMP generation after 30 min in H295R stably expressing human RXFP2 of 4 nM. In experiment [7], this substance returned an EC50, CYP11B1 mRNA expression after 48 h in H295R-rRXFP2 of 0.3 nM and an EC50, CYP11B2 mRNA expression after 48 h in H295R-rRXFP2 of 0.4 nM.
